The results in this text go back to JP2024051908A.

In experiment [1] the target is BA.2スパイクRBD (SARS-CoV-2 Omicron BA.2).
Experiment [2] has as its target BA.5スパイクRBD (SARS-CoV-2 Omicron BA.5).

B1: MO1 (antibody, V domains shown)
VH: EVQLVESGGGMVQPGRSLRLSCAASGFTFDDYAMHWVRQIPGKGLEWVSGISWNSGDIGYADSVKGRFTISRDNAKNSLHLQMNSLRAEDTALYYCAKDKTYDSPGYFLNSFDYWGQGTLVTVSS
VL: DIQMTQSPSSLSASVGDRVTITCRASQGISSYLVWYQQKPGKAPKFLIYAASTLQSGVPSRFSGSGSGTDFTLTISSLQPEDFATYYCQQLYSYPITFGQGTRLEIK
B1: the Kd – broadly, a measure of binding affinity in units of concentration – worked out at 3.3 nM in experiment [1] and 11 nM in experiment [2].

B2: MO2 (antibody, V domains shown)
VH: EVQLVESGGGLVKPGGSLSLSCVASGFTFSDYRMSWIRQAPGKGLEWVSYISSSSGYKDYADSVKGRFTISRDNAKNSLSLQMNSLRVEDTAVYYCARDVGVVTATPGYWGQGVPVSVSS
VL: DIVMTQSPATLSVSPGERATLSCRASQSVGSNLAWYQQKPGQAPRLLIYDTSTRATGVPARFSGSGSGTDFTLTISSLQSEDFAVYLCHQYDQWPPAFGPGTRVDIK
Turning to B2, the Kd in experiment [1] worked out at 2 nM.
